Here are results for two molecules from patent publication EP3080145B1.

In assay [1] the target is HFBI variant D40Q/D43N (Trichoderma reesei) (UniProt P52754). In words: QCM-D, enzyme injected over adsorbed D40Q/D43N layer, pH series.
Assay [2] has the same target. In words: QCM-D, enzyme injected over adsorbed D40Q/D43N layer, around pH 5.

UniProt P52754, sequence (P52754 23-97 D62Q/D65N, form in doubt): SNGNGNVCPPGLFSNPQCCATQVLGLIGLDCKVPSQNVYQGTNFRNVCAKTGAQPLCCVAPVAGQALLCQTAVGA

Turning to “Trichoderma reesei xylanase II (from UniProt P36217 34-223) (enzyme)”, the adsorbed mass in assay [1] lay in the range of 55 to 100 ng/cm^2.

B1: Trichoderma reesei cellobiohydrolase I (enzyme, UniProt P62694 18-513, looked up)
chain: QSACTLQSETHPPLTWQKCSSGGTCTQQTGSVVIDANWRWTHATNSSTNCYDGNTWSSTLCPDNETCAKNCCLDGAAYASTYGVTTSGNSLSIGFVTQSAQKNVGARLYLMASDTTYQEFTLLGNEFSFDVDVSQLPCGLNGALYFVSMDADGGVSKYPTNTAGAKYGTGYCDSQCPRDLKFINGQANVEGWEPSSNNANTGIGGHGSCCSEMDIWEANSISEALTPHPCTTVGQEICEGDGCGGTYSDNRYGGTCDPDGCDWNPYRLGNTSFYGPGSSFTLDTTKKLTVVTQFETSGAINRYYVQNGVTFQQPNAELGSYSGNELNDDYCTAEEAEFGGSSFSDKGGLTQFKKATSGGMVLVMSLWDDYYANMLWLDSTYPTNETSSTPGAVRGSCSTSSGVPAQVESQSPNAKVTFSNIKFGPIGSTGNPSGGNPPGGNRGTTTTRRPATTTGSSPGPTQSHYGQCGGIGYSGPTVCASGTTCQVLNPYYSQCL
As for B1, the maximum adsorption (adsorbed mass) in assay [2] was 600 ng/cm^2.
